Here are results for 47 molecules from US20190218253A1 (NATIONAL UNIVERSITY OF SINGAPORE, published 2019).

For experiment [1], the target named is T1, retinoblastoma binding protein 4 (RBBp4) (UniProt Q09028 1-425).
T1 construct: Bought protein; Crystal structure numbering runs at least over residues 33-404; also called RbAp48
The experiment can be described thus: fluorescence polarization competition, ratio of IC50s. How it is done: These three substitutions (Gln4Phe, Pro7Phe, and His9Trp) were incorporated into peptide 46 ([…], named FFW hereof, (SEQ ID NO: 14)).
(§1) Reactions were incubated at room temperature before the plate was read with an Envision instrument (Perkin Elmer). IC₅₀ values of peptides were determined using Prism (GraphPad).
(In general: Fluorescence polarisation rises when a labelled molecule tumbles more slowly, as on binding a larger partner.)

Experiment [2] addresses T1, retinoblastoma binding protein 4 (RBBp4). The experiment can be described thus: fluorescence polarization competition: peptide titrated into RBBp4 + C-terminal FITC-labelled WT SALL4 peptide. How it is done:
as §1

The target is the same in experiment [3]. The description is as above. This is another data set of the same source.
Experiment [4] has the same target. The experiment can be described thus: fluorescence polarization competition; peptide titrated into RBBp4 with C-labelled FITC-SALL4 WT peptide as the displaced tracer. As to the method:
(§2) FIGS. 3A-3E. […] The difference in the binding free energy (ΔΔGbind) of the alanine mutants (ΔGₘᵤₜₐₙₜ, Ala7 was mutated to glycine) and wild type (ΔG_{wild type}) was calculated (ΔΔGbind=ΔGₘᵤₜₐₙₜ−ΔG_{wild type}). ΔΔGbind was tabulated (left) and plotted in a bar chart (right). […] Mutated residues are highlighted in red. The IC₅₀ of each peptide, including WT, was determined by Fluorescence Polarization (FP). […] Polarization was measured in mP. […] Pep-1 carrier was added to the peptide to facilitate cellular penetration of the peptides.
(§3) In silico analysis using computational alanine scanning was performed on the key residues identified by the crystal contacts.

Experiment [5] has the same target. The experiment is described as above. As to the method: as §2, §3
The source holds these as a separate data set.

Square brackets hold non-standard residues; d marks the D form.

T1 sequence (Q09028 whole entry, the tested form may be a part): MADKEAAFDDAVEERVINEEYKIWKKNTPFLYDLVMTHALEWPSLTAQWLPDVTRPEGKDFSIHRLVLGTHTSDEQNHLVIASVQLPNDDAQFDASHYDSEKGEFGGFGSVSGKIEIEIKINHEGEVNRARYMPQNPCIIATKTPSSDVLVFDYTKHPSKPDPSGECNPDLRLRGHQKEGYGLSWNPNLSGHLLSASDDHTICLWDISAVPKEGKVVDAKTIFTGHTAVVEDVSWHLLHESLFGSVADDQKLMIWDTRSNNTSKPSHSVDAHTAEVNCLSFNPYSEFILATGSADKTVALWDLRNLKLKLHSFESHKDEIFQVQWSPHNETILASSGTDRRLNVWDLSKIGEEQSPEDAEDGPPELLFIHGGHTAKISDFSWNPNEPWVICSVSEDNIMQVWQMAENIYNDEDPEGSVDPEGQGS

B1: Peptide 46 (Ac-RRKFAKFQWI-NH2), FFW (peptide)
peptide: Ac-RRKFAKFQWI-NH2
notes: Gln4Phe, Pro7Phe and His9Trp of peptide 6; also called FFW peptide
One may read the IC50 as the concentration needed to halve the response being measured. Consider B1, for which the “fold increase in affinity compared with the 12-residue WT peptide” value in experiment [1] was > 56 fold. Besides, in experiment [2], the half-inhibitory concentration (IC50) amounted to 23 nM. On to MSRRAQAKPQHI [SALL4 (1-12) peptide bearing the K5A mutation], for which, in experiment [3], the IC50 was 7000 nM.

B2: mut K5A,Q6A (peptide)
peptide: MSRRAAAKPQHI
notes: One of the double mutants with the loss of only one key residue (group m57); also called SALL4 (1-12) peptide, double mutant K5A-Q6A
Regarding B2, the half-maximal inhibitory concentration (IC50) in experiment [4] and in experiment [5] was 4400 nM in each case. For the molecule MSRRKAAKPQHI [SALL4 (1-12) peptide bearing the Q6A mutation], the half-maximal inhibitory concentration (IC50) in experiment [3] stood at 1300 nM.

As to MSRAKQAKPQHI [SALL4 (1-12) peptide bearing the R4A mutation], in experiment [3], the IC50 came out at 8900 nM.

On to MSARKQAKPQHI [SALL4 (1-12) peptide bearing the R3A mutation], for which the IC50 came out at 4500 nM in experiment [4], 4500 nM in experiment [5] and 3800 nM in experiment [3].

B3: mut R4A,Q6A (peptide)
peptide: MSRAKAAKPQHI
notes: One of the double mutants with the loss of only one key residue (group m57); also called SALL4 (1-12) peptide, double mutant R4A-Q6A
For the molecule B3, the 50% inhibitory concentration (IC50) in experiment [4] and in experiment [5] was 4700 nM throughout.

B4: mut R3A,Q6A (peptide)
peptide: MSARKAAKPQHI
notes: One of the double mutants with the loss of only one key residue (group m57); also called SALL4 (1-12) peptide, double mutant R3A-Q6A
Take B4: the IC50 in experiment [4] and in experiment [5] was 4100 nM throughout.

Consider Ac-MSRRKQAKPQ-NH2 (C-terminal truncation of WT) [Peptide 3 (Ac-MSRRKQAKPQ-NH2)], for which the half-inhibitory concentration (IC50) in experiment [2] turned out to be 800 nM. As to Ac-MSRRKQAKPQH-NH2 (C-terminal truncation of WT) [Peptide 2 (Ac-MSRRKQAKPQH-NH2)], the concentration for half-maximal inhibition (IC50) in experiment [2] was determined as 1290 nM; in experiment [3] it was 1400 nM.

B5: Peptide 1 (Ac-MSRRKQAKPQHI-NH2) (peptide)
peptide: Ac-MSRRKQAKPQHI-NH2
notes: also called WT; original 12-residue WT peptide
On to B5, for which the IC50 in experiment [2] is 1040 nM; in experiment [3] it was 1300 nM. Turning to Ac-RRKQAKPQHI-NH2 [Peptide 6 (printed Ac-…-NH2; WT without Met1 and Ser2)], the IC50 in experiment [2] came to 360 nM. On to Ac-RRKQAKAQHI-NH2 (Ala scan of peptide 6) [Peptide 13 (Ac-RRKQAKAQHI-NH2)], for which, in experiment [2], the 50% inhibitory concentration (IC50) is 270 nM. In the case of Ac-RKKQAKPQHI-NH2 (R2 mutation of peptide 6) [Peptide 18 (Ac-RKKQAKPQHI-NH2)], the IC50 in experiment [2] was 2300 nM.

For the molecule Ac-RRKQAKFQHI-NH2 [Peptide 34 (Ac-RRKQAKFQHI-NH2)], the concentration for half-maximal inhibition (IC50) in experiment [2] worked out at 170 nM.

For the molecule Ac-RRRQAKPQHI-NH2 (K3 mutation of peptide 6) [Peptide 19 (Ac-RRRQAKPQHI-NH2)], in experiment [2], the IC50 is 630 nM. For Ac-RRKLAKPQHI-NH2 (Q4 mutation of peptide 6) [Peptide 23 (Ac-RRKLAKPQHI-NH2)], the IC50 in experiment [2] came to 270 nM.

As to Ac-RRKQAKPVHI-NH2 [Peptide 37 (Ac-RRKQAKPVHI-NH2)], in experiment [2], the IC50 turned out to be 350 nM. Turning to Ac-RRKQALPQHI-NH2 [Peptide 28 (Ac-RRKQALPQHI-NH2)], in experiment [2], the IC50 was 310 nM. Take Ac-RRKQAKLQHI-NH2 (P7 mutation of peptide 6) [Peptide 33 (Ac-RRKQAKLQHI-NH2)]: the IC50 in experiment [2] came to 4400 nM. In the case of Ac-RRKNAKPQHI-NH2 (Q4 mutation of peptide 6) [Peptide 21 (Ac-RRKNAKPQHI-NH2)], the concentration for half-maximal inhibition (IC50) in experiment [2] is 920 nM. As to Ac-RRKQAAPQHI-NH2 [Peptide 12 (Ac-RRKQAAPQHI-NH2)], in experiment [2], the IC50 stood at 160 nM. Take Ac-RRKQAKPQYI-NH2 [Peptide 40 (Ac-RRKQAKPQYI-NH2)]: the 50% inhibitory concentration (IC50) in experiment [2] is 2850 nM. Consider Ac-RRKQAKPQHA-NH2 [Peptide 16 (Ac-RRKQAKPQHA-NH2)], for which, in experiment [2], the IC50 was 460 nM. As for Ac-RRKQAKPQHL-NH2 (To be rechecked) [Peptide 44 (printed Ac-RRKCIAKPOHL-NH2)], the IC50 in experiment [2] was 590 nM.

In the case of Ac-RRKQAKPAHI-NH2 [Peptide 14 (Ac-RRKQAKPAHI-NH2)], the concentration for half-maximal inhibition (IC50) in experiment [2] is 120 nM.

Ac-RRKAAKPQHI-NH2 [Peptide 11 (Ac-RRKAAKPQHI-NH2)]: the half-inhibitory concentration (IC50) in experiment [2] is 190 nM. The same measure, in the same setting: with Ac-RRKQAFPQHI-NH2 [Peptide 29 (Ac-RRKQAFPQHI-NH2)] the figure was 530 nM; with Ac-RRKQAVPQHI-NH2 [Peptide 27 (Ac-RRKQAVPQHI-NH2)], 910 nM; with Ac-RRKQAKPQVI-NH2 [Peptide 42 (Ac-RRKQAKPQVI-NH2)], 480 nM. With Ac-RRKQRKPQHI-NH2 [Peptide 26 (Ac-RRKQRKPQHI-NH2)], the IC50 in experiment [2] came out at 460 nM. Regarding Ac-RRKQAKPEHI-NH2 [Peptide 35 (Ac-RRKQAKPEHI-NH2)], in experiment [2], the IC50 turned out to be 570 nM. Turning to Ac-RRKQAKPLHI-NH2 [Peptide 38 (Ac-RRKQAKPLHI-NH2)], in experiment [2], the IC50 came out at 460 nM. On to Ac-KRKQAKPQHI-NH2 (R1 mutation of peptide 6) [Peptide 17 (Ac-KRKQAKPQHI-NH2)], for which the IC50 in experiment [2] turned out to be 3800 nM. On the same count and under the same terms, under Ac-RRKVAKPQHI-NH2 (Q4 mutation of peptide 6) [Peptide 22 (Ac-RRKVAKPQHI-NH2)] stands 410 nM. Still for that read-out and setting: with Ac-RRKQAKPNHI-NH2 [Peptide 36 (Ac-RRKQAKPNHI-NH2)] the figure was 790 nM. As for Ac-RRKFAKPQHI-NH2 [Peptide 24 (Ac-RRKFAKPQHI-NH2)], the “fold enhancement in binding affinity over peptide 6” value in experiment [1] was 7 fold. In experiment [3], the half-maximal inhibitory concentration (IC50) came out at 50 nM.

As for Ac-RRKQAKPQAI-NH2 [Peptide 15 (Ac-RRKQAKPQAI-NH2)], the IC50 in experiment [2] is 730 nM. Consider Ac-RRKEAKPQHI-NH2 (Q4 mutation of peptide 6) [Peptide 20 (Ac-RRKEAKPQHI-NH2)], for which the IC50 in experiment [2] came to 3490 nM. Still for that read-out and setting: under Ac-RRKQAKPQFI-NH2 [Peptide 39 (Ac-RRKQAKPQFI-NH2)] stands 340 nM; under Ac-RRKQKKPQHI-NH2 [Peptide 25 (Ac-RRKQKKPQHI-NH2)], 380 nM; under Ac-RRKQAKVQHI-NH2 (P7 mutation of peptide 6) [Peptide 32 (Ac-RRKQAKVQHI-NH2)], 5800 nM. As to Ac-RRKQARPQHI-NH2 [Peptide 30 (Ac-RRKQARPQHI-NH2)], the half-maximal inhibitory concentration (IC50) in experiment [2] is 330 nM. For the molecule Ac-RRKQAKPQWI-NH2 [Peptide 41 (Ac-RRKQAKPQWI-NH2)], the “fold improvement of binding affinity compared with peptide 6” value in experiment [1] turned out to be 3 fold. Moreover, in experiment [2], the concentration for half-maximal inhibition (IC50) turned out to be 120 nM.

B6: Peptide 31 (Ac-RRKQAKpQHI-NH2) (peptide)
peptide: Ac-RRKQAK[code p]QHI-NH2
modifications: not fully specified; printed as Ac-RRKQAKpQHI-NH2
notes: P7 mutation of peptide 6; position 7 printed in lower case
Regarding B6, the IC50 in experiment [2] turned out to be 6600 nM.

As to Ac-MSRRKQAKP-NH2 (C-terminal truncation of WT) [Peptide 4 (Ac-MSRRKQAKP-NH2)], the half-inhibitory concentration (IC50) in experiment [2] turned out to be 1910 nM; in experiment [3] it was 1960 nM. Consider Ac-SRRKQAKPQHI-NH2 (N-terminal truncation of WT) [Peptide 5 (Ac-SRRKQAKPQHI-NH2)], for which the concentration for half-maximal inhibition (IC50) in experiment [2] was determined as 600 nM.
